{
  "source": "paper PMC314469",
  "about": "“Protein Interaction Networks by Proteome Peptide Scanning” (PLoS Biology, 2004)",
  "binders": {"B1": {"name": "YLR189C 1077-1089 (peptide)", "chain": "ASLRAGLPTVIKP"}, "B2": {"name": "YDL129W 167-179 (peptide)", "chain": "ASSAELRPLLERP"}, "B3": {"name": "YOL138C 1118-1131 (peptide)", "chain": "APIIGSPRHAPSRP"}, "B4": {"name": "YEL070W 157-170 (peptide)", "chain": "APEIINDLNHPEKP"}, "B5": {"name": "YPL019C 671-683 (peptide)", "chain": "ASSFQLPPGVKKP"}, "B6": {"name": "YMR115W 51-64 (peptide)", "chain": "APIPESPANSPTRP"}, "B7": {"name": "YOL126C 141-154 (peptide)", "chain": "ASIVVIPAGVPRKP"}, "B8": {"name": "YPL012W 496-508 (peptide)", "chain": "APLNLDNPSSERP"}, "B9": {"name": "YDR331W 298-310 (peptide)", "chain": "ANVQNVIPDDSKP"}, "B10": {"name": "YGR234W 289-302 (peptide)", "chain": "AMLEEQVKSNPNRP"}, "B11": {"name": "YGL099W 6-18 (peptide)", "chain": "APKKWKAPKGPKP"}, "B12": {"name": "YJL128C 177-190 (peptide)", "chain": "AQLLNPNRRAPRRP"}, "B13": {"name": "YML059C 513-525 (peptide)", "chain": "ASSKLKKPPKAKP"}, "B14": {"name": "YLL018C 545-557 (peptide)", "chain": "ASLFPRDPKRLRP"}, "B15": {"name": "YDL145C 797-809 (peptide)", "chain": "ASNFVQRPVISKP"}, "B16": {"name": "YGL060W 533-546 (peptide)", "chain": "ANSVPIMPTLPPRP"}, "B17": {"name": "YCL055W 274-286 (peptide)", "chain": "ARTGYETPVKVRP"}, "B18": {"name": "YGL133W 239-251 (peptide)", "chain": "ASSKMGAPWSVKP"}, "B19": {"name": "YJL041W 251-264 (peptide)", "chain": "ASQPEPTTNEPAKP"}, "B20": {"name": "YDR406W 122-134 (peptide)", "chain": "ANISTSDPDFYKP"}, "B21": {"name": "YDL078C 69-82 (peptide)", "chain": "AQVVLIPAGVPRKP"}, "B22": {"name": "YPL085W 1841-1854 (peptide)", "chain": "ASKLVEQHMAPPKP"}, "B23": {"name": "YOR098C 642-655 (peptide)", "chain": "AQKDSSVVSEPKKP"}},
  "biological_target": "T1, Abp1 SH3 (ABP1_YEAST), P15891",
  "T1 chain": "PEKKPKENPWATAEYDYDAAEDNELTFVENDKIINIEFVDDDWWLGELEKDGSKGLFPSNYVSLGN",
  "experiment": "SPOT array",
  "data": [
    {"binder": "B1", "values": [
      {"measurement": "normalised SPOT signal, Boehringer light units (BLU); mean over the file's lines of this peptide", "result": 78.3}
    ]},
    {"binder": "B2", "values": [
      {"measurement": "normalised SPOT signal, Boehringer light units (BLU); mean over the file's lines of this peptide", "result": 78.5}
    ]},
    {"binder": "B3", "values": [
      {"measurement": "normalised SPOT signal, Boehringer light units (BLU); mean over the file's lines of this peptide", "result": 8310}
    ]},
    {"binder": "B4", "values": [
      {"measurement": "normalised SPOT signal, Boehringer light units (BLU); mean over the file's lines of this peptide", "result": 86}
    ]},
    {"binder": "B5", "values": [
      {"measurement": "normalised SPOT signal, Boehringer light units (BLU); mean over the file's lines of this peptide", "result": 143}
    ]},
    {"binder": "B6", "values": [
      {"measurement": "normalised SPOT signal, Boehringer light units (BLU); mean over the file's lines of this peptide", "result": 190}
    ]},
    {"binder": "B7", "values": [
      {"measurement": "normalised SPOT signal, Boehringer light units (BLU); mean over the file's lines of this peptide", "result": 199}
    ]},
    {"binder": "B8", "values": [
      {"measurement": "normalised SPOT signal, Boehringer light units (BLU); mean over the file's lines of this peptide", "result": 103}
    ]},
    {"binder": "B9", "values": [
      {"measurement": "normalised SPOT signal, Boehringer light units (BLU); mean over the file's lines of this peptide", "result": 35.4}
    ]},
    {"binder": "B10", "values": [
      {"measurement": "normalised SPOT signal, Boehringer light units (BLU); mean over the file's lines of this peptide", "result": 0}
    ]},
    {"binder": "B11", "values": [
      {"measurement": "normalised SPOT signal, Boehringer light units (BLU); mean over the file's lines of this peptide", "result": 332}
    ]},
    {"binder": "B12", "values": [
      {"measurement": "normalised SPOT signal, Boehringer light units (BLU); mean over the file's lines of this peptide", "result": 364}
    ]},
    {"binder": "B13", "values": [
      {"measurement": "normalised SPOT signal, Boehringer light units (BLU); mean over the file's lines of this peptide", "result": 2150}
    ]},
    {"binder": "B14", "values": [
      {"measurement": "normalised SPOT signal, Boehringer light units (BLU); mean over the file's lines of this peptide", "result": 1990}
    ]},
    {"binder": "B15", "values": [
      {"measurement": "normalised SPOT signal, Boehringer light units (BLU); mean over the file's lines of this peptide", "result": 2410}
    ]},
    {"binder": "B16", "values": [
      {"measurement": "normalised SPOT signal, Boehringer light units (BLU); mean over the file's lines of this peptide", "result": 112}
    ]},
    {"binder": "B17", "values": [
      {"measurement": "normalised SPOT signal, Boehringer light units (BLU); mean over the file's lines of this peptide", "result": 342}
    ]},
    {"binder": "B18", "values": [
      {"measurement": "normalised SPOT signal, Boehringer light units (BLU); mean over the file's lines of this peptide", "result": 146}
    ]},
    {"binder": "B19", "values": [
      {"measurement": "normalised SPOT signal, Boehringer light units (BLU); mean over the file's lines of this peptide", "result": 114}
    ]},
    {"binder": "B20", "values": [
      {"measurement": "normalised SPOT signal, Boehringer light units (BLU); mean over the file's lines of this peptide", "result": 99.2}
    ]},
    {"binder": "B21", "values": [
      {"measurement": "normalised SPOT signal, Boehringer light units (BLU); mean over the file's lines of this peptide", "result": 53.3}
    ]},
    {"binder": "B22", "values": [
      {"measurement": "normalised SPOT signal, Boehringer light units (BLU); mean over the file's lines of this peptide", "result": 122}
    ]},
    {"binder": "B23", "values": [
      {"measurement": "normalised SPOT signal, Boehringer light units (BLU); mean over the file's lines of this peptide", "result": 99.8}
    ]}
  ]
}
